# T1: CD97 (ADGRE5) isoform 2 ectodomain, purified and biotinylated (human, UniProt P48960 21-552, biotinylated in vitro using the BirA enzyme)
# T1 construct: the whole entry for isoform 2 is named here; also called CD97 isoform 2
# T1 sequence: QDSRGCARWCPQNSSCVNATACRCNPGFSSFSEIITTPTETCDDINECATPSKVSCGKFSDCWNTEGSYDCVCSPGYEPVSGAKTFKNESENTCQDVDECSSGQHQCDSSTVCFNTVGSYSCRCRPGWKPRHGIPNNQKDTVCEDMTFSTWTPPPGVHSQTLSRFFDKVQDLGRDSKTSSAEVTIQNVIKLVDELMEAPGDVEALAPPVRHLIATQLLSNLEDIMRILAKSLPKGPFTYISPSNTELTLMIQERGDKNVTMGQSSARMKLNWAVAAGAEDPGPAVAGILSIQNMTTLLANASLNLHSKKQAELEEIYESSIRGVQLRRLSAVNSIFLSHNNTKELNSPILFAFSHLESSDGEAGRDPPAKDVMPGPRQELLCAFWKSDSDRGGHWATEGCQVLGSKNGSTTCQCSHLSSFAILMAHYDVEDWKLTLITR
# T2: CD97 (ADGRE5) isoform 1 ectodomain, purified and biotinylated (human, UniProt P48960 21-552, limits assumed, biotinylated in vitro using the BirA enzyme)
# T2 construct: the whole entry for isoform 1 is named here; also called CD97 isoform 1; Biotinylated CD97 isoform 1
# T2 sequence: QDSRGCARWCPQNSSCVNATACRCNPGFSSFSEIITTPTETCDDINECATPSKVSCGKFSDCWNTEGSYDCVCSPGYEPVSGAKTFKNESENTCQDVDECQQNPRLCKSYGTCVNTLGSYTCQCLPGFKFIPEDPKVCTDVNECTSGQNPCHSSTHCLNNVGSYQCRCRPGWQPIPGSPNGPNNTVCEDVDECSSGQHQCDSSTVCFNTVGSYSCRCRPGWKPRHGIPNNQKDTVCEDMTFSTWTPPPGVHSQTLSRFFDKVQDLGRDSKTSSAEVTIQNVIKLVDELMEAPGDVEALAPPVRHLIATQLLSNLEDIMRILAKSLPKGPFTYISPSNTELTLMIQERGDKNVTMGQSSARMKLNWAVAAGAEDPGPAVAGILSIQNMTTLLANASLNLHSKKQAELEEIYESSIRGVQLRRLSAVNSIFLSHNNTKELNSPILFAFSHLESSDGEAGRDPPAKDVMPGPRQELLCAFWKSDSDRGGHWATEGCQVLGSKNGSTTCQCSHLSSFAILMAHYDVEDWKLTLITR
# T3: EMR2 (EGF-like module-containing mucin-like hormone receptor-like 2) isoform 4 ectodomain, purified and … (UniProt Q9UHX3-4 24-447, limits assumed, biotinylated in vitro using the BirA enzyme)
# T3 construct: extracellular domain; Close homolog of CD97 used as specificity control
# T3 sequence (looked up): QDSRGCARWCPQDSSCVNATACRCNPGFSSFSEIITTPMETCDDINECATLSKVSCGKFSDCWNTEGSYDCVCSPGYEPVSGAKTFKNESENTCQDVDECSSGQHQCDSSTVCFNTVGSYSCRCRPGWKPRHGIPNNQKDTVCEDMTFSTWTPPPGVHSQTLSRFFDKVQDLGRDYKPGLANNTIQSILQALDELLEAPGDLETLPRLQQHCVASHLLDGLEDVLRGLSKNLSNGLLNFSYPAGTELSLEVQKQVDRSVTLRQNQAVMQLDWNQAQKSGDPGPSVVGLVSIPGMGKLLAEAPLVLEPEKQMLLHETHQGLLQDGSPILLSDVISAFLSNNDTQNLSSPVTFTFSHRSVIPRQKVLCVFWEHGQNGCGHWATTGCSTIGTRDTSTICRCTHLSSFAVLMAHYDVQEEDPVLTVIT
# T4: CD97 isoform 1 (Homo sapiens, UniProt P48960)
# T4 construct: The genes encoding the ectodomains of CD97 (isoforms 1 and 2) and EMR2 (isoforms 1 and 4); inferred from IMAC purification; inferred from BirA biotinylation; made in house; host or cells: expi293F
# T4 sequence (P48960 21-552 limits assumed): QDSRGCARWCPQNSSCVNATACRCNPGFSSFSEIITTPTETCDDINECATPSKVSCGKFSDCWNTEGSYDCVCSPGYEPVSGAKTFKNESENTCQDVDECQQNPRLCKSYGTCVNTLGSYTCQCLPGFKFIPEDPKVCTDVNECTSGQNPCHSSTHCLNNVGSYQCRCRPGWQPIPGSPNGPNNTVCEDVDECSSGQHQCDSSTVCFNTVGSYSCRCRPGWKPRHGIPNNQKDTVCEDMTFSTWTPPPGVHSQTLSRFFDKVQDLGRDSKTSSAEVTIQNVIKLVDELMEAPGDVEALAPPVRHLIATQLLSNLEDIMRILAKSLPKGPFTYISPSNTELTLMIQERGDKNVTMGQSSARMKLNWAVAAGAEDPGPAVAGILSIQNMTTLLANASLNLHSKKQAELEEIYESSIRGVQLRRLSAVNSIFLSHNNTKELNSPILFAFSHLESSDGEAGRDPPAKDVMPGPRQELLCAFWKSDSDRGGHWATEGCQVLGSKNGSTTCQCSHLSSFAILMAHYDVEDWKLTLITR
# How the values were obtained:
# [1] = biological target: T1, CD97 (ADGRE5) isoform 2 ectodomain, …; assay: bead-based binding titration (biotinylated antigen on streptavidin beads, flow cytometry), 1:1 fit [Continued]
# [2] = biological target: T2, CD97 (ADGRE5) isoform 1 ectodomain, …; assay: as above
# [3] = biological target: T1, CD97 (ADGRE5) isoform 2 ectodomain, …; assay: bead-based binding titration (biotinylated antigen on streptavidin beads, flow cytometry), 1:1 fit
# [4] = biological target: T2, CD97 (ADGRE5) isoform 1 ectodomain, …; assay: as above
# [5] = biological target: T3, EMR2 (EGF-like module-containing …); assay: bead-based binding titration (biotinylated antigen on streptavidin beads, flow cytometry)
# CD97 isoform 1 = biological target: T4, CD97 isoform 1; assay: Bead-based binding assay of Fab clones; settings: for binding of A8 CDRH3 mutants to CD97 isoform 1: Fab format, compared with wild type A8
# Description: Binding titration of the Fab clones was performed by a bead binding assay, as described previously (7,8). Briefly, biotinylated antigens were immobilized on Dynabeads M-280 streptavidin (Thermo Fisher). The biotinylated Fab clones were titrated into a solution containing the antigen-coated beads. After incubation, the beads were washed three times and incubated with anti-human F(ab′)2-Alexa Fluor 647 (Jackson ImmunoResearch). The beads were further washed three times and analyzed on a HyperCyt (Intellicyt).
# The genes encoding the ectodomains of CD97 (isoforms 1 and 2) and EMR2 (isoforms 1 and 4) (FIG. 1) were synthesized (Integrated DNA Technologies) and cloned into the mammalian expression vector pBCAG. The expi293F cells (Thermo Fisher) were transfected with the vectors using the ExpiFectamine 293 transfection kit (Thermo Fisher) according to the manufacturer's protocol. The cells were incubated at 37° C. with 8% CO2. The proteins were purified from the cell culture supernatant by immobilized metal affinity chromatography (IMAC). The purified proteins were biotinylated in vitro using the BirA enzyme in the presence of 0.5 mM Biotin and 10 mM ATP. After the removal of the BirA enzyme by IMAC, the proteins were further purified by size exclusion chromatography using a Superdex 200 10/300 Increase (Cytiva). The purity of the proteins was confirmed by SDS-PAGE.
Molecule,Kd [3],Kd [4],binding result [5],binding of A8 CDRH3 mutants to CD97 isoform 1 (CD97 isoform 1),further results
"Fab D9 (Fab, V domains shown, first discovery campaign; also called Antibody Clone D9) VH: EVQLVESGGGLVQPGGSLRLSCAASGFTVSSSSIHWVRQAPGKGLEWVASISSYYGYTSYADSVKGRFTISADTSKNTAYLQMNSLRAEDTAVYYCARYPMFSYYYWYYGMDYWGQGTLVTVSS VL: DIQMTQSPSSLSASVGDRVTITCRASQSVSSAVAWYQQKPGKAPKLLIYSASSLYSGVPSRFSGSRSGTDFTLTISSLQPEDFATYYCQQSSGYPVTFGQGTKVEIKR",–,–,–,–,Kd [1]: 3.6 nM; Kd [2]: 3.4 nM
"Fab 2X10 (Fab, V domains shown, second discovery campaign; biotinylated Fab in the bead assay; also called Antibody Clone 2X10) VH: EVQLVESGGGLVQPGGSLRLSCAASGFTFSSSSIHWVRQAPGKGLEWVASISSSSGSTSYADSVKGRFTISADTSKNTAYLQMNSLRAEDTAVYYCARSYWDMYIYWYYYVKQSRGMDYWGQGTLVTVSS VL: DIQMTQSPSSLSASVGDRVTITCRASQSVSSAVAWYQQKPGKAPKLLIYSASSLYSGVPSRFSGSRSGTDFTLTISSLQPEDFATYYCQQSSSSLITFGQGTKVEIKR",41 nM,54 nM,no binding (tested: 100 nM),–,–
"Fab 2Z3 (Fab, V domains shown, second discovery campaign; biotinylated Fab in the bead assay; also called Antibody Clone 2Z3) VH: EVQLVESGGGLVQPGGSLRLSCAASGFTFSSSSIHWVRQAPGKGLEWVASISSSSGSTSYADSVKGRFTISADTSKNTAYLQMNSLRAEDTAVYYCARVLLGKFWYYNYYEYSAMDYWGQGTLVTVSS VL: DIQMTQSPSSLSASVGDRVTITCRASQSVSSAVAWYQQKPGKAPKLLIYSASSLYSGVPSRFSGSRSGTDFTLTISSLQPEDFATYYCQQSSSSLITFGQGTKVEIKR",7.1 nM,7.1 nM,no binding (tested: 50 nM),–,–
"Fab D12 (Fab, V domains shown, first discovery campaign; also called Antibody Clone D12) VH: EVQLVESGGGLVQPGGSLRLSCAASGFTFSSSSIHWVRQAPGKGLEWVASISSSSGSTSYADSVKGRFTISADTSKNTAYLQMNSLRAEDTAVYYCARIRHYHWYEIPYWDWAIDYWGQGTLVTVSS VL: DIQMTQSPSSLSASVGDRVTITCRASQSVSSAVAWYQQKPGKAPKLLIYSASSLYSGVPSRFSGSRSGTDFTLTISSLQPEDFATYYCQQSSSSLITFGQGTKVEIKR",–,–,–,–,Kd [1]: 3.2 nM; Kd [2]: 3 nM
"Fab 2A5 (Fab, V domains shown, second discovery campaign; biotinylated Fab in the bead assay; also called Antibody Clone 2A5) VH: EVQLVESGGGLVQPGGSLRLSCAASGFTFSSSSIHWVRQAPGKGLEWVASISSSYGSTSYADSVKGRFTISADTSKNTAYLQMNSLRAEDTAVYYCARGWAYSYWYYSHYYEYEVALDYWGQGTLVTVSS VL: DIQMTQSPSSLSASVGDRVTITCRASQSVSSAVAWYQQKPGKAPKLLIYSASSLYSGVPSRFSGSRSGTDFTLTISSLQPEDFATYYCQQSKFSSPVTFGQGTKVEIKR",2 nM,2.6 nM,no binding (tested: 50 nM),–,–
"Fab 2X12 (Fab, V domains shown, second discovery campaign; biotinylated Fab in the bead assay; also called Antibody Clone 2X12) VH: EVQLVESGGGLVQPGGSLRLSCAASGFTISSSSIHWVRQAPGKGLEWVASISSSSSYTSYADSVKGRFTISADTSKNTAYLQMNSLRAEDTAVYYCARMDISYYYYEWGFESAYYGMDYWGQGTLVTVSS VL: DIQMTQSPSSLSASVGDRVTITCRASQSVSSAVAWYQQKPGKAPKLLIYSASSLYSGVPSRFSGSRSGTDFTLTISSLQPEDFATYYCQQWWGPELVTFGQGTKVEIKR",29 nM,22 nM,no binding (tested: 100 nM),–,–
"C27: anti-CD97 antibody clone, VL SEQ ID NO: 21, VH SEQ ID NO: 46 (antibody, V domains shown) VH: EVQLVESGGGLVQPGGSLRLSCAASGFTLSSSSIHWVRQAPGKGLEWVASIYSYYGSTYYADSVKGRFTISADTSKNTAYLQMNSLRAEDTAVYYCARYRGNMYYWESWYGSYWALDYWGQGTLVTVSS VL: DIQMTQSPSSLSASVGDRVTITCRASQSVSSAVAWYQQKPGKAPKLLIYSASSLYSGVPSRFSGSRSGTDFTLTISSLQPEDFATYYCQQSSSSLITFGQGTKVEIKRTV",–,–,–,–,"binding to CD97 isoform 1 (CD97 isoform 1; Fab clones of the first antibody discovery campaign, purified biotinylated antigen on beads): bound only to CD97 isoform 1"
"A8 Y100fHA: A8 mutant, VL SEQ ID NO: 9, VH SEQ ID NO: 111 (antibody, V domains shown) VH: EVQLVESGGGLVQPGGSLRLSCAASGFTISSYSIHWVRQAPGKGLEWVASISPYYGSTSYADSVKGRFTISADTSKNTAYLQMNSLRAEDTAVYYCARSWYYYEQNPYWAQKEEQALDYWGQGTLVTVSS VL: DIQMTQSPSSLSASVGDRVTITCRASQSVSSAVAWYQQKPGKAPKLLIYSASSLYSGVPSRFSGSRSGTDFTLTISSLQPEDFATYYCQQSVYSPVTFGQGTKVEIKRTV",–,–,–,substantially reduced or abolished binding to CD97,–
"A8 W100eHA: A8 mutant, VL SEQ ID NO: 9, VH SEQ ID NO: 110 (antibody, V domains shown) VH: EVQLVESGGGLVQPGGSLRLSCAASGFTISSYSIHWVRQAPGKGLEWVASISPYYGSTSYADSVKGRFTISADTSKNTAYLQMNSLRAEDTAVYYCARSWYYYEQNPYAYQKEEQALDYWGQGTLVTVSS VL: DIQMTQSPSSLSASVGDRVTITCRASQSVSSAVAWYQQKPGKAPKLLIYSASSLYSGVPSRFSGSRSGTDFTLTISSLQPEDFATYYCQQSVYSPVTFGQGTKVEIKRTV",–,–,–,substantially reduced or abolished binding to CD97,–
"A8 N100bHE: A8 mutant, VL SEQ ID NO: 9, VH SEQ ID NO: 109 (antibody, V domains shown) VH: EVQLVESGGGLVQPGGSLRLSCAASGFTISSYSIHWVRQAPGKGLEWVASISPYYGSTSYADSVKGRFTISADTSKNTAYLQMNSLRAEDTAVYYCARSWYYYEQEPYWYQKEEQALDYWGQGTLVTVSS VL: DIQMTQSPSSLSASVGDRVTITCRASQSVSSAVAWYQQKPGKAPKLLIYSASSLYSGVPSRFSGSRSGTDFTLTISSLQPEDFATYYCQQSVYSPVTFGQGTKVEIKRTV",–,–,–,substantially reduced or abolished binding to CD97,–
